In US20250084398A1, “SYSTEMS FOR MODULATING DRUG METABOLISM BY CELLS, METHODS AND COMPOSITIONS THEREOF” (priority 2021, published 2025):
Residue numbers refer to the chain shown, from its start. In names and notes the source's numbering stands.

Key:
[1] = mice, cited from earlier work
GUS enzyme [2] = details: induced with 1 mM PNPG; cited from earlier work
HL29 (ATCC HTB-38) cells = assay: Viability of human colorectal adenocarcinoma cells incubated 48 hr with SN38G-treated bacterial lysates (XTT viability assay); assay type: cell-based
Description: Two BW25113 bacterial cultures were used: Vector bacteria expressing empty vector, and K125A bacteria containing the DOIN vector expressing GusR mutant repressor K125A. The cultures were incubated with PNPG to induce the GUS operon and were then incubated with the indicated SN-38G (SantaCruz, 212931A) concentrations, followed by lysis of the bacteria. HL29 (ATCC® HTB-38™) cells were maintained according to the manufacture instructions and incubated for 48 hr with the different bacterial extractions. The viability of the cells, incubated with the bacterial lysates, were determined using the XTT viability assay, in three independent biological repeats using four replicates.
GusR mutant K125A reduces the cytotoxicity of SN38 by inhibiting the metabolism of SN38G by the bacterial GUS, in an enzyme concentration-dependent manner. The study was performed as described in FIGURE, with the following modifications: The cultures were incubated with PNPG to induce the GUS operon, diluted as indicated, followed by incubation with 1 μM of SN-38G, and subsequently, lysis of the bacteria. The viability of the cells was determined as above.
Bacteria (WT and GUS-inhibitor producing bacteria) are grown and induced using PNPG as described above. Following induction, the bacteria are lysed, and extracts are incubated with SN-38G or PNPG. At the end of the incubation period, the PNPG-incubated bacterial extracts are taken to determine the activity of the GUS. In parallel, the SN-38G-incubated bacterial extracts are added to HT29 cell culture to determine cytotoxicity and CC50.
The rate of SN38G conversion to SN38 by the bacterial GUS in the samples is dependent on the reaction conditions (e.g., GUS enzyme activity, substrate concentration etc.), thus the resulting samples contained different concentrations of SN38. The samples were then incubated with HL29, human colorectal adenocarcinoma cell-line, and the viability of the cells was determined. Different concentrations of SN38G and bacteria were examined to evaluate their effect on the cytotoxicity of SN38. […]

[3] = replacement of carboxylate-contacting residue; cited from earlier work
GUS enzyme [4] = assay: GUS assay: GUS specific activity in bacterial cultures, PNPG substrate, absorbance at 410 nm; assay type: cell-based, E. coli
Description: The GUS activity is performed as previously described elsewhere, including all required assay controls. Briefly, bacterial cultures grow to reach OD600 of 0.6. Once reached the targeted growth phase, the culture is transduced with the GusR_K125A-expressing vector. One hour later, the bacterial cultures are added to the assay reaction, along with the substrate (PNPG) and the assay buffer. The assay reaction is incubated at 37° C. for 6 hours and the activity of the GUS operon is monitored by the presence of the hydrolysis product (PNP) by measuring the absorbance at 410 nm. The arbitrary units of the GUS operon specific activity are calculated as follows: […]
Inhibition of the GUS activity using the GusR_K125A mutant was next evaluated by the inventors. More specifically, two E. coli bacterial hosts were used: BW25113 and MG1655. A plasmid that expresses the mutant repressor K125A was introduced into each of these hosts (BW25113 K125A and MG1655 K125A). The activity of the GUS operon was determined in the absence (−) or presence (+) of the GUS operon inducer PNPG. The specific units were calculated as described above. As shown by FIG. 4, GUS activity is inhibited in the presence of the dominant negative mutant repressor K125A in two bacterial hosts.

[5] = test system: E. coli K-12 BW25113 and E. coli K12 MG1655; assay: TFU assay: transduction efficiency of phage-based particles into bacterial hosts; assay type: cell-based; details: 1 hr incubation with lysate
Description: FIG. 6. Transduction of the modulatory component into different microbiome isolates Transductions (TFU/ml) of the DOIN vector into microbiome isolates was determined using the TFU assay, as described previously. Test bacteria culture (MG1655 (grey bars), BW25113 (white bars)) was grown to reach mid-exponential growth phase and incubated for 1 hr with a lysate of transducing particles (modified bacteriophages) containing the DOIN vector expressing GusR K125A_CRISPR, used as the modulatory component. Ten-fold serial dilutions were plated in duplicates on selective plates, which only bacteria that were transduced were able to grow on. Dashed grey horizontal line indicates the assay limit of detection. Data represent at least two independent experiments.
The lysate titer is determined using the transducing forming units (TFU) assay as previously described elsewhere.
The produced lysates are used to transduce each of the abovementioned bacterial hosts, and the transduction efficiencies for each strain is determined by the TFU assay.
More specifically, phage-based particle lysate was prepared as described above. The transduction efficiency of the particles against the indicated bacterial host above was determined using the TFU assay, as described previously, and presented in Table 2. The tail used for transduction is TC1 (TC1 as denoted by SEQ ID NO: 4).

## CCc1c2c(nc3ccc(O)cc13)-c1cc3c(c(=O)n1C2)COC(=O)[C@]3(O)CC [SN38]
[1]; after administration of Irinotecan 80 mg/kg
  time to peak concentration of SN38: 2 h
[1]; intestine, Irinotecan 80 mg/kg
  peak concentration of SN38: around 1 μg/gr tissue weight

B1: K125A GusR (protein)
chain: MMDNMQTEAQPTRTRILNAAREIFSENGFHSASMKAICKSCAISPGTLYHHFISKEALIQAIILQDQERALARFREPIEGIHFVDYMVESIVSLTHEAFGQRALVVEIMAEGMRNPQVAAMLKNAHMTITEFVAQRMRDAQQKGEISPDINTAMTSRLLLDLTYGVLADIEAEDLAREASFAQGLRAMIGGILTAS
GUS enzyme [2]
  GUS activity of bacterial cells containing an expression plasmid: no GUS activity
HL29 (ATCC HTB-38) cells; SN38G 0.1 μM, BW25113 bacteria
  rescue of cells from the toxic effect of SN38 (FIG. 9): completely rescued
HL29 (ATCC HTB-38) cells; SN38G 1 μM, BW25113 bacteria, un-diluted
  cells rescued (viability, FIG. 9): 60%
HL29 (ATCC HTB-38) cells; SN38G 1 μM, bacteria 6-fold diluted
  cells rescued from SN38 toxicity (FIG. 10): ~100%
[3]
  affinity to the GUS ligand: significantly lower affinity
GUS enzyme [4]; samples of the cytotoxicity study (BW25113)
  GUS specific activity lower than in empty vector-expressing bacteria: around 10 fold
GUS enzyme [4]; two bacterial hosts, BW25113 and MG1655, absence or presence of PNPG
  GUS activity (specific activity, FIG. 4): inhibited
[5]
  Transduction into microbiome isolates (FIG. 6): successful transduction

B2: Y164F GusR (protein)
chain: B1 chain with A125K, Y164F
GUS enzyme [4]; BW25113 bacteria
  reduction of GUS activity (FIG. 7): 34 fold
GUS enzyme [4]; MG1655 bacteria
  reduction of GUS activity (FIG. 7): ~1.5 fold
